How the values were obtained:
[1] = substrate: [N-]=[N+]=C1C=C(/C=C/C=C/C(=O)O)C=CC1=O; experiment: purified protein; assay type: biochemical, Streptomyces sp.; conditions: 800 µM NADPH, 3-DAA made in situ by CmaA6, 25-400 µM, pH 8.0
[2] = substrate: NC(=O)C1=CN([C@@H]2O[C@H](COP(=O)(O)OP(=O)(O)OC[C@H]3O[C@@H](n4cnc5c(N)ncnc54)[C@H](OP(=O)(O)O)[C@@H]3O)[C@@H](O)[C@H]2O)C=CC1; experiment: purified protein; assay type: biochemical, Streptomyces sp.; conditions: 3-DAA made in situ by CmaA6 from 1.0 mM 3-AAA, pH 8.0, varied: cofactor

B1: AvaA7 (Streptomyces sp.) (protein)
chain: MRVLVAGATGVIGHPLVGALRARGHNVSALVRDASRAPEADRVVVADALDREAVLSAVSAARPEVVVHQLTALRLLRDDPPEAFAQTARLRTEGTAHLVEAARAAGARRLVAQSIAFAAAPQGPPVLDEDAPLYVDAPDPGWAATVRAVAELERLVASSDLAGLVLRYGTLYGPGTGYARDGGTALRVLAGKLPLPEGGAGVTSFLHVDDAVGAAVAAVESEATGCLHVTDDEPAPAAQWLPHYARTLGAPPPRTLPAALAPRLLGWFMTHQLTTARGAANDRARTALGWKPTHPSWRDGLGRE
notes: recombinant
With B1 the Km [1] was 152 ± 31 µM, the kcat [1] was 10.2 ± 0.917 s⁻¹ and the kcat/Km [1] was 66700 M⁻¹ s⁻¹. For the same protein, the Km [2] was 138 ± 10 µM, the kcat [2] was 4.433 ± 0.0333 s⁻¹ and the kcat/Km [2] was 31700 M⁻¹ s⁻¹.

Reference: publication PMC10777205, “Identification of the p-coumaric acid biosynthetic gene cluster in Kutzneria albida: insights into the diazotization-dependent deamination pathway” (Beilstein Journal of Organic Chemistry, 2024)
